Experimental data from US20260242478A1 (published 2026).
Where no end group is shown, it is not given here.

What was measured:
PSMA Fab [1] = molecular target: T1, PSMA Fab; experiment: phage ELISA; biotinylated PSMA Fab on neutravidin plate, clonal phage supernatant, anti-M13 HRP detection, blocking buffer alone
T1 construct: also called Anti-PSMA Fab; 006 PSMA Fab
Method: (§1) Clonal phage were harvested as crude supernatants and screened via standard ELISAs. […] Prior to the addition of clonal phage. wells were incubated with blocking buffer and PSMA antigen or blocking buffer alone. Without washing or aspirating, clonal phage supernatants were then added to the wells and incubated for a short time. Wells were then washed followed by detection of bound phage using a horse radish conjugated anti-M13 antibody.

PSMA Fab [2] = molecular target: T1, PSMA Fab; experiment: phage ELISA; biotinylated PSMA Fab on neutravidin plate pre-incubated with PSMA antigen as competitor, anti-M13 HRP detection;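 also: crude clonal phage supernatants tested, compared against control wells pre-incubated with blocking buffer only, without PSMA antigen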
Method: as §1

[3] = molecular target: T2, Anti-PSMA Fab (SEQ ID NOs: 19, 20); experiment: phage binding ELISA; biotinylated PSMA Fab on neutravidin plate, clonal phage supernatant, anti-M13 HRP detection;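 also: wells were preincubated with blocking buffer either containing PSMA antigen or without it before crude phage supernatant was added, briefly incubated, then washed prior to detection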
T2 construct: Biotinylated and captured on neutravidin-coated plates in the phage ELISA; also called 006 PSMA Fab
Method: as §1

[4] = molecular target: T2, Anti-PSMA Fab (SEQ ID NOs: 19, 20); experiment: phage binding ELISA; PSMA Fab on plate pre-incubated with PSMA antigen as competitor, anti-M13 HRP detection;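 also: crude clonal phage supernatants added without washing to wells preincubated with PSMA in blocking buffer, compared with wells receiving blocking buffer only, then bound phage detected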
Method: as §1

PSMA Fab [5] = molecular target: T3, PSMA Fab; experiment: clonal phage ELISA; biotinylated PSMA Fab on neutravidin plate; anti-M13-HRP detection; no PSMA antigen
T3 construct: also called Anti-PSMA Fab; 006 PSMA Fab
Method: as §1

PSMA Fab [6] = molecular target: T3, PSMA Fab; experiment: clonal phage ELISA; biotinylated PSMA Fab on neutravidin plate; wells pre-incubated with PSMA antigen as competitor; anti-M13-HRP detection
Method: as §1

PSMA Fab [7] = molecular target: T4, PSMA Fab (biotinylated (site not stated)); experiment: clonal phage ELISA; biotinylated PSMA Fab on neutravidin plate, blocking buffer alone, anti-M13-HRP detection;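 also: crude clonal phage supernatants added without washing to wells preincubated with PSMA antigen or with blocking buffer alone, briefly incubated, then washed before bound phage detection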
T4 construct: also called Anti-PSMA Fab; 006 PSMA Fab

PSMA Fab [8] = molecular target: T4, PSMA Fab; experiment: clonal phage ELISA; biotinylated PSMA Fab on neutravidin plate, wells pre-incubated with PSMA antigen as competitor, anti-M13-HRP detection
Method: as §1

| Binder | Phage binding ELISA signal, Anti-PSMA Fab (PSMA Fab [1]) | Phage binding ELISA signal, Anti-PSMA Fab in the presence of PSMA antigen (PSMA Fab [2]) | Phage binding ELISA signal, Anti-PSMA Fab (PSMA Fab [5]) | Phage binding ELISA signal, Anti-PSMA Fab with PSMA antigen (PSMA Fab [6]) | also measured |
| --- | --- | --- | --- | --- | --- |
| AERWCIPDWMCNVI (Peptide-180 library clone, tested as clonal phage supernatant) [Phage-2363] | 1.41 | 0.0567 | – | – | – |
| ADKWCIPEWMCQQD [Phage-2252 peptide (SEQ ID NO: 2568)] | – | – | – | – | Anti-PSMA Fab (SEQ ID NOs: 19, 20) signal [3]: 1.55; Anti-PSMA Fab signal in the presence of PSMA [4]: 0.0665 |
| LEKWCIPSWMCSTL (Peptide-180 library clone, tested as clonal phage supernatant) [Phage-2370] | 1.4 | 0.0829 | – | – | – |
| TQMWCIPFWMCEVQ [Phage-2459] | – | – | 1.27 | 0.0885 | – |
| EMKWCTPPWMCTEL [Phage-2460] | – | – | 1.26 | 0.0656 | – |
| IIKWCTPEWMCVGF [Phage-2249 peptide (SEQ ID NO: 2565)] | – | – | – | – | Anti-PSMA Fab (SEQ ID NOs: 19, 20) signal [3]: 1.55; Anti-PSMA Fab signal in the presence of PSMA [4]: 0.0748 |
| VETWCIPHWMCAGF (cysteine pairing not given here; also: displayed as fusion to phage pIII) [Phage-2453] | – | – | 1.27 | 0.0685 | – |
| VDKWCIPSWMCEFY (Peptide-180 library clone, tested as clonal phage supernatant) [Phage-2371] | 1.4 | 0.0767 | – | – | – |
| GEIWCTPKWMCDGF [Phage-2246 peptide (SEQ ID NO: 2562)] | – | – | – | – | Anti-PSMA Fab (SEQ ID NOs: 19, 20) signal [3]: 1.55; Anti-PSMA Fab signal in the presence of PSMA [4]: 0.0716 |
| EEKWCRPAWMCEHA (Peptide-180 library clone, tested as clonal phage supernatant) [Phage-2360] | 1.42 | 0.0625 | – | – | – |
| ITPWCIPPWMCPGP (Peptide-180 library clone, tested as clonal phage supernatant) [Phage-2361] | 1.42 | 0.0746 | – | – | – |
| AANWCTPPWMCLGF (Peptide-180 library clone, tested as clonal phage supernatant) [Phage-2359] | 1.42 | 0.0888 | – | – | – |
| LMNWCIPPWMCSAQ [Phage-2242 peptide (SEQ ID NO: 2558)] | – | – | – | – | Anti-PSMA Fab (SEQ ID NOs: 19, 20) signal [3]: 1.56; Anti-PSMA Fab signal in the presence of PSMA [4]: 0.0907 |
| VEILCKPAWMCRLD [Phage-2457] | – | – | 1.27 | 0.062 | – |
| LVKLCIPEWMCSEG [Phage-2244 peptide (SEQ ID NO: 2560)] | – | – | – | – | Anti-PSMA Fab (SEQ ID NOs: 19, 20) signal [3]: 1.56; Anti-PSMA Fab signal in the presence of PSMA [4]: 0.0711 |
| DEIWCIPRWMCDGI [Phage-2462] | – | – | 1.25 | 0.0834 | – |
| EEKMCKPSWMCQLF (Peptide-180 library clone, tested as clonal phage supernatant) [Phage-2362] | 1.41 | 0.09 | – | – | – |
| VMKWCTPQWMCEHL [Phage-2465] | – | – | 1.25 | 0.068 | – |
| LMKWCIPQWMCQLD [Phage-2243 peptide (SEQ ID NO: 2559)] | – | – | – | – | Anti-PSMA Fab (SEQ ID NOs: 19, 20) signal [3]: 1.56; Anti-PSMA Fab signal in the presence of PSMA [4]: 0.249 |
| DGKWCIPEWMCAQQ (cysteine pairing not given here; also: displayed as fusion to phage pIII) [Phage-2463] | – | – | 1.25 | 0.0837 | – |
| QVQWCIPPWMCLED (Peptide-180 library clone, tested as clonal phage supernatant) [Phage-2372] | 1.4 | 0.0887 | – | – | – |

| Binder | Phage binding ELISA signal, Anti-PSMA Fab (PSMA Fab [1]) | Phage binding ELISA signal, Anti-PSMA Fab in the presence of PSMA antigen (PSMA Fab [2]) | Phage binding ELISA signal, Anti-PSMA Fab (PSMA Fab [5]) | Phage binding ELISA signal, Anti-PSMA Fab with PSMA antigen (PSMA Fab [6]) | also measured |
| --- | --- | --- | --- | --- | --- |
| ITKLCTPPWMCMDV [Phage-2668] | – | – | – | – | Phage binding ELISA signal, Anti-PSMA Fab (PSMA Fab [7]): 0.886; Phage binding ELISA signal, Anti-PSMA Fab (PSMA Fab [8]): 0.0571 |
| NIIRCTPAWMCDGF [Phage-2247 peptide (SEQ ID NO: 2563)] | – | – | – | – | Anti-PSMA Fab (SEQ ID NOs: 19, 20) signal [3]: 1.55; Anti-PSMA Fab signal in the presence of PSMA [4]: 0.0619 |
| WDHLCKPRWMCDGI (cysteine pairing not given here; also: displayed as fusion to phage pIII) [Phage-2451] | – | – | 1.28 | 0.0744 | – |
| SVKMCIPEWMCENI [Phage-2452] | – | – | 1.28 | 0.0646 | – |
| PVKLCKPDWMCWVS [Phage-2464] | – | – | 1.25 | 0.105 | – |
| PPKWCIPAWMCAGM (cysteine pairing not given here; also: displayed on bacteriophage as fusion to pIII) [Phage-2666] | – | – | – | – | Phage binding ELISA signal, Anti-PSMA Fab (PSMA Fab [7]): 0.895; Phage binding ELISA signal, Anti-PSMA Fab (PSMA Fab [8]): 0.0794 |
| LENWCKPAWMCWGM [Phage-2248 peptide (SEQ ID NO: 2564)] | – | – | – | – | Anti-PSMA Fab (SEQ ID NOs: 19, 20) signal [3]: 1.55; Anti-PSMA Fab signal in the presence of PSMA [4]: 0.0811 |
| INKWCIPEWMCAAM (Peptide-180 library clone, tested as clonal phage supernatant) [Phage-2366] | 1.41 | 0.0668 | – | – | – |
| GEKWCIPSWMCVAV [Phage-2456] | – | – | 1.27 | 0.0549 | – |
| SVHECRPLWMCQGF [Phage-2455] | – | – | 1.27 | 0.073 | – |
| SEKLCIPEWMCAQA (cysteine pairing not given here; also: displayed on bacteriophage as fusion to pIII) [Phage-2245 peptide (SEQ ID NO: 2561)] | – | – | – | – | Anti-PSMA Fab (SEQ ID NOs: 19, 20) signal [3]: 1.56; Anti-PSMA Fab signal in the presence of PSMA [4]: 0.0686 |
| AEKLCKPAWMCNNM (Peptide-180 library clone, tested as clonal phage supernatant) [Phage-2365] | 1.41 | 0.0752 | – | – | – |
| YEKWCIPAWMCHVA (Peptide-180 library clone, tested as clonal phage supernatant) [Phage-2367] | 1.41 | 0.0747 | – | – | – |
| DGVWCVPQWMCDGY (Peptide-180 library clone, tested as clonal phage supernatant) [Phage-2368] | 1.4 | 0.0722 | – | – | – |
| SVKLCIPDWMCVSE [Phage-2461] | – | – | 1.26 | 0.203 | – |
| VTNWCIPEWMCNGN [Phage-2667] | – | – | – | – | Phage binding ELISA signal, Anti-PSMA Fab (PSMA Fab [7]): 0.894; Phage binding ELISA signal, Anti-PSMA Fab (PSMA Fab [8]): 0.0615 |
| GTNWCTPAWMCAGF (cysteine pairing not given here; also: displayed on bacteriophage as fusion to pIII) [Phage-2251 peptide (SEQ ID NO: 2567)] | – | – | – | – | Anti-PSMA Fab (SEQ ID NOs: 19, 20) signal [3]: 1.55; Anti-PSMA Fab signal in the presence of PSMA [4]: 0.061 |
| GLGWCTPTWMCEGF (Peptide-180 library clone, tested as clonal phage supernatant) [Phage-2369] | 1.4 | 0.0727 | – | – | – |
| GANLCIPPWMCLSS (Peptide-180 library clone, tested as clonal phage supernatant) [Phage-2364] | 1.41 | 0.0789 | – | – | – |
| DTNWCRPAWMCAFA (cysteine pairing not given here; also: displayed as fusion to phage pIII) [Phage-2458] | – | – | 1.27 | 0.0649 | – |
| IDKWCIPAWMCEST [Phage-2250 peptide (SEQ ID NO: 2566)] | – | – | – | – | Anti-PSMA Fab (SEQ ID NOs: 19, 20) signal [3]: 1.55; Anti-PSMA Fab signal in the presence of PSMA [4]: 0.105 |
